Results: US10752881B2, “Trans-differentiation of differentiation cells” (Helmholtz Zentrum München-Deutsches Forschungszentrum für …, priority 2014, dated 2020)
Residues, ends and D or L forms follow the SMILES beside them. *: point of attachment. Cbz = O=C(OCc1ccccc1)*; CH2F = FC*

Legend:
adult human fibroblasts = experiment: Neuronal reprogramming of adult human fibroblasts; format: cell-based; conditions: for effect on reprogramming efficiency of human fibroblasts: combination Ascl1/Bcl-2/Vdr, 60 DPI
Text: To determine whether Bcl-2 would also efficiently enhance reprogramming into neurons in cells from other species, we used fibroblasts obtained from a person that were expanded and transduced as described above with the retroviral vector encoding Ascl1 and RFP alone or in combination with a second vector encoding the human BCL-2 (hBCL-2) and the reporter GFP.
Primary cultures of human skin fibroblasts were established from 3 mm diameter full thickness punch biopsy specimens which were mechanically dissociated before plating. […] For reprogramming experiments cells were plated on coverslips in 24-well plates as described above for astrocytes and 48 hours after infection medium was changed to DMEM high glucose with GlutaMAX and 1% fetal calf serum, penicillin/streptomycin and B27 supplement (Gibco). During the reprogramming process, medium was replaced by conditioned-astrocyte medium every 3 days. Conditioned-astrocyte medium is obtained by growing astroglial culture with differentiation medium (see Cell cultures of astroglia from the postnatal mouse cerebral cortex above) during minimum of 2 days. Then the medium is collected from astrocytes and used for reprogramming of the human cells.
For the expression of neurogenic transcription factors we used self-inactivating retroviral vectors containing the actin promoter with cytomegalovirus enhancer (pCAG) driving the expression of the gene of interest (flag/myc-Ascl1, flag-Neurog2, Bcl-2 or Dlx-2) linked to a fluorescent reporter by internal ribosomal entry site (IRES) as previously described (Heinrich et al., 2011). The mouse version of Bcl-2 cDNA was obtained from Source BioScience (IRAVp968H01145D; pCMV-SPORT6.1-Bcl-2) and the human cDNA version (h-Bcl-2) from addgene (Plasmid number 8793; pMIG-Bcl-2-IRES-GFP) to generate RV-pCAG-flag/myc-Ascl1-IRES-Bcl-2, RV-pCAG-flag-Neurog2-IRES-Bcl-2 or RV-pCAG-Bcl-2-IRES-GFP, which encodes for both Bcl-2 and the reporter GFP. The Bcl-2 mutants A-Bcl-2 and EE-Bcl-2 were produced by directed mutagenesis with the oligos 5′-[…]-3′ (SEQ ID NO: 18) (and complementary (SEQ ID NO: 20)) and 5′-[…]-3′ (SEQ ID NO: 19) (and complementary (SEQ ID NO: 21)) respectively, to generate the vectors pCMV-SPORT6.1-A-Bcl-2, RV-pCAG-Ascl1-IRES-A-Bcl-2 and RV-pCAG-Neurog2-IRES-A-Bcl-2 and the corresponding EE-Bcl-2 versions. Mutations were verified by sequencing. The murine Vdr was obtained from Sino Biological (MG51106-G, Vector pGEM-T) and sub-cloned in the retroviral vector to generate RV-pCAG-Vdr-IRES-GFP.

reactive glial cells = experiment: In vivo conversion of reactive glial cells into neurons after stab wound injury; conditions: for acquisition of neuronal marker NeuN by singly transduced cells: single GFP+ or RFP+ cells
Text: A, Experimental protocol for stab wound injury and subsequent infection with retroviral vectors (Neurog2/RFP and Bcl-2/GFP) or treatment with calcitriol, analysed at 10 or 20 days post-infection (DPI).
To highlight the relevance of our findings we next tested the efficiency of the methods described above in vivo. For that, we performed stab wound injury followed by injection of retroviral vectors encoding Neurog2-IRES-RFP and Bcl-2-IRES-GFP next to the injury site (FIG. 7A) using a previously described protocol (see Heinrich et al., 2014). Control infected cells were glial in nature, mostly NG2+ cells of the oligodendrocyte lineage or S100b/GFAP+ astrocytes as described before (Heinrich et al., 2014). […] To examine whether key metabolic constraints observed to be important for fate conversion in vitro were also relevant in vivo we tested activation of the Vitamin D receptor pathway by the ligand calcitriol.
Operations were performed in accordance with the policies of the state of Bavaria under license number 55.2-1-54-2532-171-11. A unilateral stab wound lesion (1 mm long, 0.6 mm deep from the dura mater) was performed in the right neocortex with a 19 gauge-thick lancet without injuring the cortical white matter, as previously described (Sirko et al. 2013; Simon et al. 2011). Three days later, 0.5-1 μl of retroviral suspension (Neurog2-IRES-RFP and Bcl-2-IRES-GFP, 1:1) was injected in the site of the lesion with a glass capillary connected to a microinjector (Nanoliter2000+Sys-Micro4, World Precision Instrument), at a rate of 30-60 nl/min. The needle was retracted 5 minutes after completing the injection. When indicated in the text, 200 μl of Calcitriol (Tocris) diluted in corn oil (final concentration of 1 ng/μl) were administered through oral gavage 2 days after the retroviral injection. The dosage was determined according with previous publications (Nashold et al. 2013).
Animals were anesthetized and transcardially perfused with 1× phosphate-buffered saline (PBS), followed by 4% paraformaldehyde (PFA) in PBS. Brains were postfixed for 2 hours, washed twice with PBS and embedded in 4% agarose/water. Finally, 60 μm-thick coronal sections were cut using a vibrating microtome (Leica).

[1] = tested on: postnatal mouse astrocytes; conditions: for effect on reprogramming efficiency of astrocytes: Ascl1-transfected, 4 days of calcitriol treatment
Description: (C) Histogram of astroglial cultures transfected with Ascl1-RFP-encoding plasmid alone or in combination with WT-Bcl-2, EE-Bcl-2 or A-Bcl-2 at 4 days post-transfection (DPT). The number of transfected cells (RFP+) at final time point (4 DPT) was normalized to the initial number of transfected cells (1 DPT) to calculate the % of survival. The % of neuronal conversion was analysed by β-III-tubulin immunostaining and normalized to total number of RFP+ cells at the end of the experiment. Error bars indicate ±SD. *p<0.05, **p<0.01; ANOVA Tukeys post-test.
A, Quantifications at 5 DPT (days post-transfection) showing the effect of the inhibitor of ferroptosis, α-toc and the inhibitor of apoptosis, ZVAD in survival/efficiency of conversion of astroglial cells transfected with Ascl1-RFP.
C, Percentage of neurons in astroglial cells transfected with Ascl1-encoding plasmid alone or in combination with Bcl-2 and/or Vdr at 5 DPT after 4 days of treatment with calcitriol or untreated.
After removal of the meninges, grey matter tissue was dissected from P5-P7 cerebral cortex of C57BL/6J mice and dissociated mechanically. Subsequently, cells were centrifuged for 5 min at 1000 rpm, re-suspended, and plated in medium consisting of DMEM/F12 (Gibco), 3.5 mM glucose (Sigma), 10% fetal calf serum (Gibco), 5% horse serum (Gibco), penicillin/streptomycin (Gibco) and supplemented with B27 (Gibco), 10 ng/mL epidermal growth factor (EGF, Roche) and 10 ng/mL fibroblast growth factor 2 (FGF2, Roche). After one week expansion cells were harvested using trypsin/EDTA (Gibco) and plated onto poly-D-lysine (Sigma-Aldrich) coated glass coverslips in 24-well plates (BD Biosciences) or directly onto the plastic for time lapse experiments at a density of 60,000 cells per well in the same medium. After 24 hours cells were either transfected with plasmid or infected with retroviral vectors and after further 24 hours medium was changed to differentiation medium composed of DMEM/F12 high glucose with GlutaMAX, penicillin/streptomycin and B27 supplement (Gibco) to allow neuronal differentiation.
For transfection DNA-liposome complexes were prepared in Optimem medium (Invitrogen) using the retroviral plasmids described below and Lipofectamine 2000 (Invitrogen). Astrocyte cultures were exposed to DNA-liposome complexes at a concentration of 0.5 μg DNA per 400 μl of Optimem medium for 4 hours and cultured after that in the differentiation medium as above.
Cells were fixed in 4% paraformaldehyde (PFA) in phosphate-buffered saline (PBS) for 10 min at room temperature (RT), washed in PBS and pretreated in 0.5% Triton X-100 in PBS for 30 min, followed by incubation in 2% BSA and 0.5% Triton X-100 in PBS for 30 min. Primary antibodies were incubated on specimen overnight at 4° C. in 2% BSA, 0.5% Triton X-100 in PBS.

[2] = tested on: astroglia isolated from mouse cerebral cortex at postnatal day 5-7; experiment: Continuous single cell live imaging of Ascl1-mediated astrocyte-to-neuron reprogramming; format: cell-based; conditions: for increase of proportion of cells successfully completing reprogramming into neurons: Ascl1 + Bcl-2 vs Ascl1 only
Text: In order to identify the cellular mechanisms of neuronal reprogramming, astroglia isolated from mouse cerebral cortex at postnatal day 5-7 were transfected with an Ascl1-encoding vector thereby targeting non-proliferating cells in addition to those transduced by approaches such as MLV-based retroviral vectors that require proliferation and break-down of the nuclear envelope for successful gene transfer. Our transfection protocol (Heinrich et al., PLoS biology 8, e1000373 (2010); Heinrich et al., Nature protocols 6, 214-228 (2011)) enables cells labelled by red fluorescent protein (RFP) 24 hours after transfection to be subject to continuous live imaging for the main phase of reprogramming (i.e. 6 days). Glial and neuronal cells were identified by their morphology, with the former displaying a flat astrocyte-like morphology and the latter with a round cell soma and thin processes (monopolar, bipolar and multipolar) at least 3× longer than the cell soma. This morphology-based classification was confirmed by post-imaging immunostaining (FIG. 1A). Few of the cells transduced with Ascl1 divided during the 150 hours observation (15%: FIG. 1E). Thus, the vast majority of direct neuronal reprogramming occurs in the absence of proliferation in this system.
Time-lapse video microscopy was performed with a cell observer (Zeiss) at a constant temperature of 37° C. and 8% CO2. Phase contrast images were acquired every 5 minutes, and fluorescence pictures every 4-6 hours for 6.5-7.5 days using a 10× phase contrast objective (Zeiss), and an AxioCamHRm camera with a self-written VBA module remote controlling Zeiss AxioVision 4.7 software (Rieger and Schroeder, Journal of cellular biochemistry 108, 343-352 (2009)). Movies were assembled using Image J 1.42q (National Institute of Health, USA) software and are played at speed of 3 frames per second.

[3] = tested on: Mouse embryonic fibroblasts (MEFs); experiment: Fibroblast-to-neuron reprogramming of MEFs with retroviral vectors, β-III-tubulin immunostaining; format: cell-based
vitamin d receptor (vdr) = experiment: Vdr expression during neuronal reprogramming (immunostaining); format: cell-based; conditions: during neuronal reprogramming with Ascl1, 5 DPI
Description: A, Percentage of cells expressing Vdr in cultures infected with Ascl1-encoding vector alone or Ascl1+A-Bcl-2 at 5 DPI. Vdr presence was determined by immunostaining (B). Note that Bcl-2 increases the proportion of cells expressing endogenous Vdr during neuronal reprogramming.

[4] = astroglial cells transfected with Ascl1-RFP, 5 DPT

In the case of C=C1/C(=C\C=C2/CCC[C@]3(C)[C@@H]([C@H](C)CCCC(C)(C)O)CC[C@@H]23)C[C@@H](O)C[C@@H]1O [calcitriol, reference compound], the “effect on reprogramming efficiency of human fibroblasts” value (adult human fibroblasts) is reported as “enhance reprogramming efficiency”, the “effect on morphology and maturation state of the neurons” value (reactive glial cells; Neurog2 + Bcl-2, calcitriol 200 ng orally, 23 days after viral infection) is reported as “profoundly improved morphology and maturation state of the neurons” and the “proportion of NeuN+ neurons of all co-transduced cells” value (reactive glial cells; Neurog2 + Bcl-2 co-expression, calcitriol 200 ng orally 2 days after viral injection, 10 DPI) is reported as roughly 90%. The “effect on reprogramming efficiency of astrocytes” value ([1]; 5 DPT) was “enhance reprogramming efficiency”.

In the case of COC(=O)C[C@H](NC(=O)[C@H](C)NC(=O)[C@@H](NC(=O)OCc1ccccc1)C(C)C)C(=O)CF [ZVAD] (Cbz-Val-Ala-Asp(OMe)-CH2F), the “effect on efficiency of conversion (reprogramming efficiency)” value [1, 4] is reported as “not conversion efficiency”.

For “hBcl-2: human BCL-2 encoded by a retroviral vector with the reporter GFP”, the “increase of β-III-tubulin+ cells compared to Ascl1/RFP expressing cells” value (adult human fibroblasts; co-transduced with Ascl1) was 32 × fold and the “co-infected cells (RFP and GFP) that were β-III-tubulin+” value (adult human fibroblasts; co-transduced with Ascl1, fibroblasts from a person) was “up to 70%”.

With Cc1c(C)c2c(c(C)c1O)CC[C@@](C)(CCC[C@H](C)CCC[C@H](C)CCCC(C)C)O2 [α-tocopherol] the “effect on efficiency of conversion (reprogramming efficiency)” value [1, 4] was “increase reprogramming efficiency” and the “effect on survival / cell death” value [1, 4] was “reduces cell death”.

B1: Bcl-2: mouse Bcl-2 cDNA expressed from plasmid or retroviral vector; anti-apoptotic member of the Bcl-2 family (protein, listed as Mus musculus)
chain: MAQAGRTGYDNREIVMKYIHYKLSQRGYEWDAGDADAAPLGAAPTPGIFSFQPESNPMPAVHRDMAARTSPLRPLVATAGPALSPVPPVVHLTLRRAGDDFSRRYRRDFAEMSSQLHLTPFTARGRFATVVEELFRDGVNWGRIVAFFEFGGVMCVESVNREMSPLVDNIALWMTEYLNRHLHTWIQDNGGWDAFVELYGPSMRPLFDFSWLSLKTLLSLALVGACITLGAYLGHK
For B1, the “fraction of cells with acquired neuronal morphology dying” value ([2]; Ascl1 + Bcl-2) was “about ⅓”, the “survival rate of remaining glial cells” value ([2]; Ascl1 + Bcl-2) was 10% and the “survival rate of successfully converted cells” value ([2]; Ascl1 + Bcl-2) was 2/3. For the same molecule, the “effect on rate of proliferation during reprogramming” value ([2]; Ascl1 + Bcl-2, 150 h) was “did not affect the rate of proliferation during reprogramming”, the “effect on speed of astrocyte-to-neuron conversion” value ([2]; Ascl1 + Bcl-2, first 50-75 h of tracking) was “accelerated astrocyte-to-neuron conversion” and the “increase of proportion of cells successfully completing reprogramming into neurons” value ([2]; at 50 h of tracking) was roughly 8 fold. The “increase of proportion of cells successfully completing reprogramming into neurons” value ([2]; end of the tracking time period) was “over 3 fold”, the “effect on survival of cells during neuronal conversion” value ([2]; co-transduction with Ascl1, 150 hours imaging) was “robustly enhanced survival of cells during neuronal conversion” and the “neuronal conversion in MEFs (β-III-tubulin)” value ([3]; Ascl1-based retroviral vectors, 14 days after infection) was 42.8%. The “effect on expression of vdr” value (vitamin d receptor (vdr)) was “induces expression of vdr”, the “neuronal conversion of co-transduced cells (GFP+/RFP+)” value (reactive glial cells; Neurog2-IRES-RFP and Bcl-2-IRES-GFP co-transduced, 10 DPI) was “many co-transduced cells (GFP+/RFP+) exhibited elongated neuronal-shape morphology and were immunoreactive for NeuN” and the “acquisition of neuronal marker NeuN by singly transduced cells” value (reactive glial cells; 10 DPI) was “rarely acquired the neuronal marker NeuN”. For the same molecule, the “effect on total number of surviving cells and reprogrammed neurons” value ([1]; co-transfected with Ascl1/RFP, 6 and 12 days) was “distinctly increased the total number of surviving cells and reprogrammed neurons”.

B2: Neurog2: neurogenic transcription factor expressed from retroviral vector with RFP (protein, UniProt P70447 1-263, looked up)
Neurogenin-2: MFVKSETLELKEEEEVLMLLGSASPASATLTPMSSSADEEEDEELRRPGSARGQRGAEAEQGVQGSPASGAGGCRPGRLLGLMHECKRRPSRSRAVSRGAKTAETVQRIKKTRRLKANNRERNRMHNLNAALDALREVLPTFPEDAKLTKIETLRFAHNYIWALTETLRLADHCAGAGGLQGALFTEAVLLSPGAALGASGDSPSPPSSWSCTNSPASSSNSTSPYSCTLSPASPGSDVDYWQPPPPEKHRYAPHLPLARDCI
With B2 the “proportion of neurons induced from MEFs, of all infected cells” value ([3]; Neurog2-based retroviral vectors, 15 days after infection) was 10% and the “acquisition of neuronal marker NeuN by singly transduced cells” value (reactive glial cells; 10 DPI) was “rarely acquired the neuronal marker NeuN”.

B3: Vdr: murine vitamin D receptor over-expressed from retroviral vector RV-pCAG-Vdr-IRES-GFP (protein, listed as Mus musculus)
chain: MEAMAASTSLPDPGDFDRNVPRICGVCGDRATGFHFNAMTCEGCKGFFRRSMKRKALFTCPFNGDCRITKDNRRHCQACRLKRCVDIGMMKEFILTDEEVQRKREMIMKRKEEEALKDSLRPKLSEEQQHIIAILLDAHHKTYDPTYADFRDFRPPIRADVSTGSYSPRPTLSFSGDSSSNSDLYTPSLDMMEPASFSTMDLNEEGSDDPSVTLDLSPLSMLPHLADLVSYSIQKVIGFAKMIPGFRDLTSDDQIVLLKSSAIEVIMLRSNQSFTLDDMSWDCGSQDYKYDITDVSRAGHTLELIEPLIKFQVGLKKLNLHEEEHVLLMAICIVSPDRPGVQDAKLVEAIQDRLSNTLQTYIRCRHPPPGSHQLYAKMIQKLADLRSLNEEHSKQYRSLSFQPENSMKLTPLVLEVFGNEIS
For B3, the “effect on reprogramming efficiency of human fibroblasts” value (adult human fibroblasts) was “enhance reprogramming efficiency” and the “effect on reprogramming efficiency of astrocytes” value ([1]; 5 DPT) was “enhance reprogramming efficiency”.
